Experiments:
[1] = target: recombinant human CD38 his tagged (extracellular domain) (human) (UniProt P28907); assay: Forte Bio BLI, IgG on AHQ sensors
[2] = target: T1, recombinant human CD38 his tagged (extracellular domain) (human, UniProt P28907 43-300); assay: SPR, Biacore 2000, antibody captured by anti-human antibody, rhCD38-his as analyte
T1 construct: Bought from Sino Biological; also called rhCD38; rhCD38-his; not shown: Histidine tag
T1 sequence: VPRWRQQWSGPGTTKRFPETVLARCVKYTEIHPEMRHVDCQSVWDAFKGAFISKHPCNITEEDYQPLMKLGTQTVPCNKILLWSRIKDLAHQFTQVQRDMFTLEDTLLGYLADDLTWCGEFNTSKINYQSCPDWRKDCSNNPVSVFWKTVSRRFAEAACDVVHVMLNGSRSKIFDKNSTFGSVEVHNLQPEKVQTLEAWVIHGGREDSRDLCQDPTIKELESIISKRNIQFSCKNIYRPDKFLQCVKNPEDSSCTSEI

[3] = target: T2, human CD38 expressed on human cell lines (Daudi, Ramos, Raji, Jurkat) (human, UniProt P28907 1-300); assay: flow cytometry on Daudi cells, secondary rabbit anti-human Fcg F(ab')2, MFI against log antibody concentration
T2 construct: Endogenous CD38 of the cell lines; also called CD38 expressed on cell lines of human origin
T2 sequence: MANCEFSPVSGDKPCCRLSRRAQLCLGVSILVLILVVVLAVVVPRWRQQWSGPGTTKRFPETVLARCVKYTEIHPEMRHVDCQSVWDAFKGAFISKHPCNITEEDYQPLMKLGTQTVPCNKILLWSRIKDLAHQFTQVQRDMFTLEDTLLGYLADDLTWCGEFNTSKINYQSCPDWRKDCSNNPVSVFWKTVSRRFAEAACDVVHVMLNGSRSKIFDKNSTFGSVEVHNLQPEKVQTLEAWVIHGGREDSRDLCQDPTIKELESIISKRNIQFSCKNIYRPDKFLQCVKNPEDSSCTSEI
Procedure: (§1) Binding of anti-CD38 Antibodies to CD38-expressing cells: The candidate hits are evaluated by binding to lymphoblast like human cell lines, Ramos and Daudi. Binding to CD38 expressing human cell lines (Ramos and Daudi) was examined by staining test articles (anti-CD38 primary antibodies) with 20 μg/ml antibodies followed by semi-log dilution series (7-point) for 30 minutes on ice. This was followed by staining with a secondary antibody (rabbit anti-human Fcg F(ab′)2) concentration of 5 μg/ml for 30 minutes on ice. All samples were stained in triplicates. To minimize cross-linking induced cell death mediated by binding of the secondary antibody, cell lines were examined in staining cohorts of 4 test articles at a time. Live cells were gated using FSC vs SSC parameters by flow cytometry during sample acquisition. Mean fluorescence intensity (MFI) of stained cells were plotted on an XY chart, graphing MFI against the log of the concentration, and the data fit to a non-linear regression curve from which the EC50 is calculated.

[4] = target: T2, human CD38 expressed on human cell …; assay: flow cytometry on Ramos cells, secondary rabbit anti-human Fcg F(ab')2, MFI against log antibody concentration
Procedure: as §1

[5] = target: T1, recombinant human CD38 his tagged …; assay: BLI (Octet / Forte Bio), IgG against monovalent human CD38-HIS (affinity)
[6] = target: T1, recombinant human CD38 his tagged …; assay: BLI (Octet), avidity format: rhCD38-his loaded on Ni-NTA sensor, antibody in solution
Procedure: Avidity binding measurements of anti-CD38 Antibodies: Ni-NTA sensors were equilibrated off-line in assay buffer for 30 minutes and then monitored on-line for 60 seconds for baseline establishment. […] Then the antibody was associated at different concentrations (as described in FIGS. 8) for 50 min. Afterwards they were transferred to assay buffer for 30 minutes for off-rate measurement. Kinetics data were fit using a 1:1 binding model in the data analysis software provided by ForteBio.

IB4, reference monoclonal agonistic mouse anti-human CD38 antibody
Kd [1]: 9 nM

B1: aCD38-a-309 human IgG1 (aCD38-a-309-hIgG1) (antibody, V domains shown)
VH: EVQLVESGGGLVKPGGSLRLSCAASGFTFSSYSMNWVRQAPGKGLEWVSSISSSSNYIYYADSVKGRFTISRDNAKNSLYLQMNSLRAEDTAVYYCAREPIYTSGWPFDIWGQGTMVIVSS
VL: EIVLTQSPATLSLSPGERATLSCRASQSVSSYLAWYQQKPGQAPRLLIYDASNRATGIPARFSGSGSGTDFTLTISSLEPEDFAVYYCQQHVNFPWTFGGGTKVEIK
notes: They are assigned here because the control is a human IgG1 isotype; not shown: human IgG1 heavy chain constant region, P01857; human kappa light chain constant region, P01834
Kd [2]: 0.65 nM
EC50 (read off the curve) [3]: ~0.2 µg/mL
EC50 (read off the curve) [4]: ~0.4 µg/mL

B2: aCD38-a-309-IgG4 (antibody, V domains shown)
VH: EVQLVESGGGLVKPGGSLRLSCAASGFTFSSYSMNWVRQAPGKGLEWVSSISSSSNYIYYADSVKGRFTISRDNAKNSLYLQMNSLRAEDTAVYYCAREPIYTSGWPFDIWGQGTMVIVSS
VL: EIVLTQSPATLSLSPGERATLSCRASQSVSSYLAWYQQKPGQAPRLLIYDASNRATGIPARFSGSGSGTDFTLTISSLEPEDFAVYYCQQHVNFPWTFGGGTKVEIK
Kd [5]: 32.9 nM
Kd [6]: 0.134 nM

Reference: patent publication US20200362050A1 (BLACK BELT THERAPEUTICS, published 2020)
